The target in the assay is H2A.Z(D97N/S98K)-containing nucleosome core particle with wild-type H4 (H4K20) (UniProt P06899 1-126; P68431 1-136; P62805 1-103). Description: MST.

B1: SUV420H1(1–390), wild type, with N-terminal 6× His-TEV tag (domain or fragment)
chain: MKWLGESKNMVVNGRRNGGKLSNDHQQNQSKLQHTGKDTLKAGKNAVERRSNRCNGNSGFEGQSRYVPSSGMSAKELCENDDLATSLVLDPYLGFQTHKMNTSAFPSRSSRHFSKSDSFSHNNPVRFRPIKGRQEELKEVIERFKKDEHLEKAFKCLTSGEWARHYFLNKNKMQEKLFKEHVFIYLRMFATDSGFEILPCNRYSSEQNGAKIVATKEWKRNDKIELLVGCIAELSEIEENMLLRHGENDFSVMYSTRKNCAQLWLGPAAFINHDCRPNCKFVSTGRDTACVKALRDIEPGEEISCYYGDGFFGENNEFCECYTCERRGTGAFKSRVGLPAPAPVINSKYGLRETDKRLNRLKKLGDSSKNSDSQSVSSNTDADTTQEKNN
modifications: RED-tris-NTA dye on the His tag
For B1, the equilibrium dissociation constant (Kd) (as a rule, the constant that tells how readily two partners part at equilibrium) is 219 nM.

These data come from publication PMC10697951 (2023).
